Experimental findings from patent US20220275053A1, “MODIFIED […] PEPTIDE LIGANDS” (BicycleTx Limited, priority 2019, published 2022) are described below.

*1 amine or outer side, *2 acyl side, *3 side chain or, on linkers, in order; H or OH if unused. Bridges are numbered along the chain shown (N, C = ends). Where no end group is shown, it is not given here. [ ]: non-standard residue; d: D form. PYA = propargyl-acid (alkyne used for click attachment); TATA = O=C(CC[*:1])N1CN(C(=O)CC[*:2])CN(C(=O)CC[*:3])C1; tBuAla = CC(C)(C)C[C@H](N)C(=O)O; Nle = CCCC[C@H](N)C(=O)O

The target in assay [1] is T1, CD137 (Homo sapiens, UniProt Q07011).
T1 construct: Human peripheral blood mononuclear cells (PBMCs) were isolated from buffy coats from two donors; endogenous in cells
T1 sequence (Q07011 24-255): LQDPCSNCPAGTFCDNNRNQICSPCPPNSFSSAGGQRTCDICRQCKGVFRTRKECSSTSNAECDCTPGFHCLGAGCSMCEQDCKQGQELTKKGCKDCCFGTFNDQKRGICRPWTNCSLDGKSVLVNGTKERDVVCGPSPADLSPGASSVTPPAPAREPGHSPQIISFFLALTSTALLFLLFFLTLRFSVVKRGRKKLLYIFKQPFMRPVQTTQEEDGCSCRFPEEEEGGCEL
Kind of assay: Fluorescent multimers human immune cell direct binding assay (FACS). Particulars: FIG. 3A. The procedure:
Human peripheral blood mononuclear cells (PBMCs) were isolated from buffy coats from two donors according to standard protocols. PBMCs were used for the next step or alternatively CD8+ T cells were then isolated from the PBMCs with a MACS CD8+ T cell isolation kit (negative bead selection) according to the manufacturer's protocol (Miltenyi Biotec). PBMCs or purified CD8+ T cells were then activated for 24 hours in tissue culture flasks coated with CD3 antibody in R10 media (RPMI1640+10% FBS+1× Pen-Strep). Alternatively, cells were incubated in R10 media containing 1 μg/ml of soluble CD3 antibody (OKT3) for 24 hours. Cells were then transferred to CD3-coated 96-well flat bottom plates and incubated in R10 media in the presence of fluorescent CD137 multimers or a fluorescent EphA2 bicyclic peptide monomer (BCY0215), which was used as a negative control, at different concentrations for 1 hour at 37° C. After 1 hour, cells were transferred to a V-bottom plate and washed and stained for FACs analysis. Briefly, cells were stained in 1× Live/Dead BV510 for 15 minutes, washed, and then surface stained with the following antibodies: CD8-BV785 (or CD3-BV605) and CD137-PECy5 (diluted 1:100). Cells were then washed and fixed in 2% paraformaldehyde (PFA). Cells were run on the BD FACSCelesta and FCS files were analyzed in FlowJo. […]

Assay [2] addresses T2, CD137 (Macaca fascicularis, UniProt A9YYE7).
T2 construct: Cryopreserved PBMCs were purchased from Worldwide Primates and thawed according to standard protocol
Kind of assay: Fluorescent multimer cyno immune cell direct binding assay (FACS). Also noted: species or system cynomolgus monkey. Particulars: FIG. 4. The protocol: Cryopreserved PBMCs were purchased from Worldwide Primates and thawed according to standard protocol. CD8+ T cells were then isolated from the PBMCs with a MACS CD8+ T cell isolation kit (negative bead selection) according to the manufacturer's protocol (Miltenyi Biotec). Purified CD8+ T cells were then activated for 48 hours 96 well plates coated with CD3 antibody (1 μg/ml) in R10 media (RPMI1640+10% FBS+1× Pen-Strep). Cells were incubated in R10 media in the presence of fluorescent CD137 multimers or a fluorescent EphA2 bicyclic peptide monomer (BCY0215), which was used as a negative control, at different concentrations for 1 hour at 37° C. After 1 hour, cells were transferred to a V-bottom plate and washed and stained for FACs analysis. Briefly, cells were stained in 1× Live/Dead BV510 for 15 minutes, washed, and then surface stained with the following antibodies: CD8-BV785 and CD137-PECy5 (diluted 1:100 in 2% FBS/PBS). Cells were then washed and fixed in 2% paraformaldehyde (PFA). Cells were run on the BD FACSCelesta and FCS files were analyzed in FlowJo. Cells were gated on Single/Live/Lymphocytes/CD8+/CD137+ or CD137−. The FITC geometric mean of the CD137+ population is shown.

Assay [3] deals with T1, CD137. Kind of assay: Fluorescent multimers human T-cell competition (receptor occupancy) assay with BCY7340 as labelling reagent. The class given is binding. Particulars: unlabelled multimer titrated, 30 minutes at room temperature; 10 nM BCY7340 label; FIG. 5. The procedure: Human PBMCs were isolated from fresh buffy coats from two donors according to standard protocols. CD8+ T cells were then isolated from the PBMCs by negative magnetic bead selection with a MACS CD8+ T cell isolation kit (negative bead selection) according to the manufacturer's protocol (Miltenyi Biotec). Purified CD8+ T cells were then stimulated for 72 hours in plates coated with CD3 antibody (1 μg/ml) in R10 media (RPMI1640+10% FBS+1× Pen-Strep). Cells were then incubated with a range of concentrations of unlabelled CD137 multimer for 30 minutes at room temperature in 2% FBS. Cells were then washed and stained for FACS analysis. Briefly, cells were stained in 1× Live/Dead BV510 for 15 minutes, washed, and then surface stained with a primary antibody cocktail (CD8-BV785, CD3-BV605, and CD137-PECy5) that included a saturating concentration (10 nM) of BCY7340. Cells were incubated for 30 minutes at room temperature, washed, and fixed in 2% PFA. Cells were run on the BD FACSCelesta and FCS files were analyzed in FlowJo. Cells were gated on Single/Live/Lymphocytes/CD8+(or CD3+)/CD137+ or CD137−. The Alexa Fluor 488 geometric mean of the CD137+ population is shown.

The target of assay [4] is T3, human CD137 (human, UniProt Q07011 24-255).
T3 construct: whole, on cells; Endogenous receptor on CD3-stimulated human PBMCs or purified CD8+ T cells; also called CD137 receptor; 4-1BB
T3 sequence (Q07011 24-255): as above
Description: flow cytometry on CD3-stimulated human PBMCs, apparent affinity (kd,app), CD4+ CD137+ population, donor 214026. The protocol:
(§1) Plates were then incubated for 1 hour at 37° C., 5% CO₂. Post-incubation, plate was centrifuged at 500 rpm for 5 minutes and supernatant discarded. Samples were then washed once in 200 μL of 1× phosphate buffer saline (PBS; Gibco™ 10-010-023) at 500 rpm for 5 minutes. Cells were resuspended in 200 μL of PBS and transferred to a 96-well V-bottom polypropylene plate (Greiner Bio-One 651201). Samples were then centrifuged at 500 rpm for 5 minutes and supernatant was discarded.
(§2) Preparation of samples for flow cytometry: Zombie Violet™ Fixable Viability Dye (BioLegend® 423113) was prepared as a 1:1000 dilution in PBS and 100 μL of viability dye was added to each well and incubated in the dark at 4° C. for 30 minutes. Subsequently, wells were washed with 100 μL of PBS for 5 minutes at 500 rpm and supernatant was discarded. […] Cells resuspended in 200 μL of stain buffer were kept at 4° C. and in the dark until read by BD FACSCelesta™ flow cytometer and FCS files were analyzed in FlowJo™.
(§3) Cells were gated on lymphocytes→singlets→live→CD4+ or CD8+→CD137+/− and the geometric mean of Alexa Fluor® 488 (conjugated to BCY15416) was calculated from the CD137+ and CD137− populations shown below. […] Calculated binding affinity (kd,app) for each donor appear in Table 5. […]
On the technique in general: In flow cytometry, cells or beads pass a laser one at a time.

The target in assay [5] is T3, human CD137. Description: flow cytometry on CD3-stimulated human PBMCs, apparent affinity (kd,app), CD4+ CD137+ population, donor 214047. The procedure:
as §1, §2, §3

For assay [6], the target named is T3, human CD137. Description: flow cytometry on CD3-stimulated human PBMCs, apparent affinity (kd,app), CD4+ CD137+ population, donor 217071. The protocol:
as §1, §2, §3

Assay [7] deals with T3, human CD137. Kind of assay: flow cytometry on CD3-stimulated human PBMCs, apparent affinity (kd,app), CD8+ CD137+ population, donor 214026. The protocol:
as §1, §2, §3

Assay [8] concerns the target T3, human CD137. Kind of assay: flow cytometry on CD3-stimulated human PBMCs, apparent affinity (kd,app), CD8+ CD137+ population, donor 214047. The procedure:
as §1, §2, §3

Assay [9] has as its target T3, human CD137. Description: flow cytometry on CD3-stimulated human PBMCs, apparent affinity (kd,app), CD8+ CD137+ population, donor 217071. The procedure:
as §1, §2, §3

T2 sequence (A9YYE7 1-254): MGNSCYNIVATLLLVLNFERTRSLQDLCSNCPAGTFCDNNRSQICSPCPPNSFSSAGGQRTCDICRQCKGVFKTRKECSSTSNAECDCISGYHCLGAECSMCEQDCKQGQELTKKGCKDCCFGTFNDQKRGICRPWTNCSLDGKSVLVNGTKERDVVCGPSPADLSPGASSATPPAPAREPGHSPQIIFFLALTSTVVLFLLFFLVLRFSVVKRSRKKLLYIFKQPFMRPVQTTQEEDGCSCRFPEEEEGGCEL

For “BCY7340: Fluorescent CD137 dimer: formula (II), CHM C, 2 x BCY7077, SA n=23, fluorescein modifier (CIEEGQYCFADPYMCAX; not fully specified; non-natural residues; cyclised or stapled)”, the “binding potency relative to fluorescent trimer (BCY9932) and tetramer (BCY9931)” value with CD137 [1] (human CD137+ T cells) is “slightly less potent binding”; with CD137 [2] (cyno CD137+ T cells), “less potent binding”. The “binding to human CD137+ T cells (FITC geometric mean)” value with CD137 [1] (purified CD8+/CD137+ T cells from human PBMCs, 1 hour at 37° C.) was “bind to human CD137+ T cells in a dose responsive manner”. The “binding to cyno CD137+ T cells (FITC geometric mean)” value in the assay with CD137 [2] (purified CD8+/CD137+ T cells from cynomolgus monkey PBMCs, 1 hour at 37° C.) was “bind to cyno CD137+ T cells in a dose responsive manner”.

Consider “BCY8945: Non-modified CD137 multimer: 4 x BCY8927, hinge A, SA n=23, attachment Lys(PYA)3 (Ac-C[tBuAla]PK[dA]PYCFADPY[Nle]CA-NH2; linker 1-8-15 via TATA; not fully specified (residue 4); also: tetramer: 4 peptides on central hinge moiety A via spacer SA n=23)”, for which, in the assay with CD137 [3], the “level of free/unbound CD137 receptor on human T cells (BCY7340 binding)” value is given as “dose responsive decrease in unbound CD137 receptor”.

B1: BCY15416 (peptide)
peptide: Ac-C[tBuAla]PE[dK](PYA)PYCFADPY[Nle]CA
modifications: linker 1-8-15 via TATA; also: dimer: joined through PYA directly to central hinge moiety D, Alexa Fluor 488 on the hinge without spacer (formula (II))
notes: also called fluorescently labelled CD137 dimer; CD137 dimer
For the molecule B1, the Kd in the assay with human CD137 [4] was 0.875 nM; in the assay with human CD137 [5] it was 0.144 nM; in the assay with human CD137 [6] it was 0.13 nM; with human CD137 [7], 0.114 nM; in the assay with human CD137 [8], 0.118 nM; with human CD137 [9] it was 0.13 nM.
